Assay results as given in patent US20190248889A1 (Genentech, published 2019).

B1: antibody LGR5.1-12 (antibody, V domains shown)
VH: QSLEESGGGLVQPEGSLTLTCTASGFSFSRTYWICWDRQAPGKGLEWIACIYAGGSDNTYYASWAKGRFTISKTSSTTVTLQVTSLTAADTATYFCARYYAGSSEYFNLWGPGTLVTVSS
VL: AYDMTQTPASVEVAVGGTVTIKCQASQSIGSNLAWYQQKPGQPPKLLIYGASNLASGVSSRFKGSGSGTEFTLTISDLECADAATYYCQTTYGSSSDGFFWTFGGGTEVVVKG
notes: also called αLgR5.1-12; antibody 1-12
B2: antibody LGR5.26-1 (antibody, V domains shown)
VH: QSLEESGGDLVKPGGTLTLTCTASGIDFSYYSYMCWVRQAPGKGLEWIACIYAGTSGSTYYASWAKGRFTISKTSSTTVTLQMISLTAADTATYFCARSYYTFGVNGYAWDLWGPGTLVTVSS
VL: AFELTQTPSSVEAAVGGTVTIKCQASQSISVGLAWYQQKPGQPPKLLIYKASTLASGVPSRFKGSRSGTEFTLTISDLECADAATYYCQSYYDSSTTANVFGGGTEVVVKG
notes: also called αLgR5.26-1; antibody 26-1

Target: T1, human LgR5 (human, UniProt O75473 22-907)
T1 construct: This one molecule is used for transfected 293 cells and for endogenous LgR5 in human cells and tissues; also called leucine-rich repeat-containing G protein-coupled receptor 5
T1 sequence: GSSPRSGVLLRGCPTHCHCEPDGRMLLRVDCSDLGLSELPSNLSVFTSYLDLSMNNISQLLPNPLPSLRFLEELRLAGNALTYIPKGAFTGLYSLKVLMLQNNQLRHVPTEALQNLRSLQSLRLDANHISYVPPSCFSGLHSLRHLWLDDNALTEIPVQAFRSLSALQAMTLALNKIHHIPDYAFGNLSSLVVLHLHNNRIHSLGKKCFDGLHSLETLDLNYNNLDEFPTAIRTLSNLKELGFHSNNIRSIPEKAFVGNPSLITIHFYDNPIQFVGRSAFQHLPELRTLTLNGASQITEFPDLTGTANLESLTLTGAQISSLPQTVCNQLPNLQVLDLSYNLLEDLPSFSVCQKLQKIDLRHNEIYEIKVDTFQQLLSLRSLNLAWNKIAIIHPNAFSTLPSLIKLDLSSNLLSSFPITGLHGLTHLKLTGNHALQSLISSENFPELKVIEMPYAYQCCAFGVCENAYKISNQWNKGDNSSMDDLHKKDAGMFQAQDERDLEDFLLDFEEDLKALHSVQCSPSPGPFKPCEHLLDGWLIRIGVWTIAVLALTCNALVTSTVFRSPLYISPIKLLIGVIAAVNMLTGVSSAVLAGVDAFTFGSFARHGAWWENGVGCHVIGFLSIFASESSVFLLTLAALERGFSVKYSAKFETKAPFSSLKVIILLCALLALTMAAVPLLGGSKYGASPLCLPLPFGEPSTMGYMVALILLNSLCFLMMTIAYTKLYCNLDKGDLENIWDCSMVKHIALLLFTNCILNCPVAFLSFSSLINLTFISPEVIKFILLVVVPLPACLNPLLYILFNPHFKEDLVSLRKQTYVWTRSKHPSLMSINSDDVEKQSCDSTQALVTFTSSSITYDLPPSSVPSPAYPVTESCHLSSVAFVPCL
Assay: IHC on SW403 colon cancer cell line
Procedure: Staining with antibody LGR5.26-1 was compared to staining with antibody LGR5.1-12 in CXF233 (human colon tumor model; Oncotest) xenograft tumors and in various colon cancer cell lines. Immunohistochemistry (IHC) for Lgr5 was performed on a Dako Universal Autostainer (Dako, Carpinteria, Calif.). Briefly, formalin-fixed, paraffin-embedded tumor tissue were deparaffinized and antigen unmasking was performed in a PT Module (Thermo Scientific, Kalamazoo, Mich.) with Target Retrieval pH 6 (Dako) at 99° C. for 20 minutes. Endogenous peroxidase was inhibited with treatment of 3% H202 in PBS for 4 minutes and endogenous biotin was blocked using the Avidin/Biotin blocking kit (Vector Labs, Burlingame, Calif.). Endogenous IgGs were blocked using 10% donkey serum in 3% BSA/PBS and primary antibody to Lgr5 (LGR5.1-12 or 26-1) was incubated at 4 μg/ml for 60 minutes at room temperature. […] Antibody binding was detected with Metal enhanced DAB (Pierce Rockford, Ill.) for 5 minutes at room temperature and sections were counterstained with Mayer's Hematoxylin (Rowley Biochemical, Danvers, Mass.).
Each cell line was also characterized by lgr5 gene expression using RNAseq data into the following levels of expression: none, very low, low, moderate, and high. In addition, LgR5 levels were determined in the cell lines by IHC, substantially as described above.

Binder	binding result
B1	binds
B2	binds
